Source: patent publication EP1132405A1 (Takeda Chemical Industries, Ltd., dated 2001)
Ends that are not written are not given here.

Biological target: rat cerebellum-derived G protein-coupled receptor protein rOT7T022L (rat, UniProt Q9EP86 1-432)
Assay: cell-based or functional assay

rat cerebellum-derived G protein-coupled receptor protein rOT7T022L, sequence (Q9EP86 whole entry, form in doubt): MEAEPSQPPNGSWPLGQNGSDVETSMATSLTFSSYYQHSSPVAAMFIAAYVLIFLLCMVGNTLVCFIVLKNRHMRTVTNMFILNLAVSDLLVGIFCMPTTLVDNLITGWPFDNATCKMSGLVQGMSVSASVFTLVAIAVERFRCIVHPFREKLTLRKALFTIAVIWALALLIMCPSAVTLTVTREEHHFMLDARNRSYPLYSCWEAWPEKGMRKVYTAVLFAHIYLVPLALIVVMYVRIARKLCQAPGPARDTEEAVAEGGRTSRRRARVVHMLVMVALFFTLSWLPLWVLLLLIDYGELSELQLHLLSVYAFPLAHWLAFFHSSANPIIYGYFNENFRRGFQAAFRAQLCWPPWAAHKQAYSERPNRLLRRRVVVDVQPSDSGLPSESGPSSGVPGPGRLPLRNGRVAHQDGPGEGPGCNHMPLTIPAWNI

MPHSFANLPLRF-NH2 [peptide MPHSFANLPLRFamide (Met-Pro-His-Ser-Phe-Ala-Asn-Leu-Pro-Leu-Arg-Phe-NH2)]
IC50 of cAMP production suppression (forskolin-stimulated, cAMP EIA): 0.5 nM
